Reference: patent US20100209400A1, “TAK1-Mediated Regulation of Osteogenesis” (priority 2003, published 2010)

Columns and labels:
C3H10T½-BMP2 cells [1] = experiment: FACS for apoptosis and cell cycle progression; assay type: cell-based, murine; settings: CDDP 25 μM, TAK1 variants stably co-expressed; for apoptosis (subG0-G1 peak): etoposide 10 μM
Protocol: Exponentially growing cells were harvested 48 hours post-seeding or at different stages at and after confluence by trypsinization and fixation with 80% methanol. Cellular DNA content was determined by staining cells with RNAseS/propidium iodide, and measuring fluorescence in a Becton Dickinson FACScan. For each cell population, 10,000 cells were analyzed, and the proportions in G0/G1, G2/M and S-phases were estimated by using Modfit cell cycle analysis software. Information on cell size (e.g. due to differentiation) and complexity could be obtained from forward and side scatter data following evaluation of relevant cell populations.
To determine whether TAK1-mediated effects in the assay systems above resulted from apoptosis, C3H10T½-BMP2 cells co-expressing TAK1 variants were assayed by FACS for apoptosis and cell cycle progression.

SMAD proteins = experiment: Co-immunoprecipitation of TAK1 variants with SMADs from HEK293T cells; assay type: binding; settings: SMAD7, R-SMADs 1-3, 5, SMAD4
Protocol: (§1) Co-immunoprecipitation were conducted as described (Verschueren K et al, J. Biol. Chem, 274: 20489-20498, 1999). Human embryonic kidney (HEK) 293T cells were plated at 3×10^6 cells/petri dish (55 square centimeters (cm^2)) one day prior to transfection. For transient transfections, 1 μg of Flag-tagged expression plasmid and 2 μg of Myc- or HA-tagged expression plasmids were utilized. DNA content was normalized with empty vector. Transfections were performed with FuGENE6 (Roche, Mannheim). Roughly 36 hours post-transfection cells were dislodged from dishes and harvested by centrifugation. Pellets were shock frozen in liquid nitrogen. […] reactions were performed in lysis buffer. Cell extracts and immunoprecipitates were analyzed by SDS-PAGE and Western blot analysis using the appropriate antibodies.
Toward this end, co-immunoprecipitation with various combinations of wild-type TAK1 (TAK1wt) and R-SMADs, either in a latent form or post-activation by constitutively active BMP type I receptor (ALK6ca, BMPR-IB) or activin type I receptor ALK4ca (ActR-IB), I-SMADs and SMAD4, were conducted. […] TAK1 interaction with R-SMADs was typically stronger in the absence of constitutively active receptors (the exception being SMAD3), which may reflect a reduced affinity for activated, i.e. phosphorylated R-SMADs by TAK1, except with SMAD3.
SMAD proteins only bind TAK1 with an intact or a constitutively active kinase domain. Different TAK1 variants such as TAK1wt, TAK1ca, TAK1dn and two deletions, TAKDN (lacking amino acids 1-300; FIG. 1a) and TAKDC (lacking 301-606; FIG. 1a), respectively, were tested for their ability to bind to R-SMADs (using SMAD1 as a representative) or I-SMAD6 and I-SMAD7.

SMAD1:SMAD4 interaction = molecular target: T1, SMAD1:SMAD4 interaction (Homo sapiens, UniProt Q13485+Q15797); experiment: Co-immunoprecipitation of SMAD1:SMAD4 hetero-oligomerization in HEK293T cells; assay type: cell-based; settings: receptor-mediated hetero-oligomerization
T1 construct: expressed in transfected cells; host or cells: HEK293T
T1 sequence (Q15797 whole entry): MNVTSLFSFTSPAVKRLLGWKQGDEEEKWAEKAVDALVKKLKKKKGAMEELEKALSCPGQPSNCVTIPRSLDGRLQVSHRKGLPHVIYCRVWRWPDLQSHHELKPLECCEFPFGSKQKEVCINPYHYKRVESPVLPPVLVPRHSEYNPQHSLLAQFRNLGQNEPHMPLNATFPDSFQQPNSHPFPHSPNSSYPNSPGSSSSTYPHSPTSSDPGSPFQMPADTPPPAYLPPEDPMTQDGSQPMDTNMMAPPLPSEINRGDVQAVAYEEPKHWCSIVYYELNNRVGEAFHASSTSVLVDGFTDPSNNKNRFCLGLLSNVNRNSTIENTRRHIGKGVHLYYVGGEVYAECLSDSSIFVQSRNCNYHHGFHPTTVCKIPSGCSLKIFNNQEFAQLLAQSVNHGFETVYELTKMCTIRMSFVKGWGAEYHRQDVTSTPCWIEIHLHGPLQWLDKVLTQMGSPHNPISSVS
T1 sequence (Q13485 whole entry): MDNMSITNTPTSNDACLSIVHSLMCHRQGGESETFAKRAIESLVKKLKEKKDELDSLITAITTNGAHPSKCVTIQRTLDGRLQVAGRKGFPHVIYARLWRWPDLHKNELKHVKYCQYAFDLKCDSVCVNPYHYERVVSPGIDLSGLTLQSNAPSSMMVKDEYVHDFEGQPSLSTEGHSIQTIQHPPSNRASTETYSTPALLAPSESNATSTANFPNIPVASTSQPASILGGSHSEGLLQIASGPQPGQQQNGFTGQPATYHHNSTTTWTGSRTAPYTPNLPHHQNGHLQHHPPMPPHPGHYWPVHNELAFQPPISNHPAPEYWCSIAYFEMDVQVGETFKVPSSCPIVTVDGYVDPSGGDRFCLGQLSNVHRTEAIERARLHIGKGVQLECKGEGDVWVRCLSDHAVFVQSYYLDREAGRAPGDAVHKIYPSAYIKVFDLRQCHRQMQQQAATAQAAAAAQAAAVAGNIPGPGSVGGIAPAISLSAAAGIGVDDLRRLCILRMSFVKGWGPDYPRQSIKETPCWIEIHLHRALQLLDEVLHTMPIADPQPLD
Protocol: as §1
R-SMAD hetero-oligomerization with SMAD4 and subsequent accumulation in the nucleus is essential for biological activity.

[2] = test system: SMAD1-mediated transcription; experiment: SMAD1-SBE CAT reporter assay; assay type: cell-based, human; settings: dose-dependent, following activation by constitutively active receptors
Protocol: Reporter assays using the GALA DNA binding domain fused to various forms of SMAD proteins were performed as described (Meersseman, G at al, Mech. Dev, 61: 127-140, 1997). Briefly, 420 nanograms (ng) DNA was transfected/well (24 well-plate seeded with 1×10^5 HEK 293T cells) one day prior to transfection. The DNA mix included a plasmid expressing β-galactosidase under the control of the RSV promoter, for normalization purposes and a reporter plasmid encoding firefly luciferase under the control of 5 GAL4 binding sites upstream of a minimal TATA box (pG5 luc, Promega, Mannheim) and combinations of effector plasmids. The DNA content was normalized with empty vector.
Cells were harvested and lysed. β-Galactosidase (β-gal) activity was measured via the luminescent β-galactosidase kit II (Clontech, Palo Alto, Calif.), and luciferase activity via the luciferase assay system (Promega, Mannheim). All results are expressed as luciferase activity normalized with β-gal values (“relative luciferase activities”). Reporter assays with the SMAD1 DNA binding element SBE-9 (GCCG×9) (Kusanagi K et al, Mol Biol Cell 11: 555-565, 2000) cloned into pCAT5 vector (Boshart M et al, Gene 110: 129-130, 1992) were performed similarly except that cells were lysed in CAT lysis buffer. CAT enzyme was measured via CAT ELISA assay and β-gal via chemiluminescent β-gal reporter gene assay (Roche, Mannheim). […]

C3H10T½-BMP2 cells [3] = experiment: Histological analysis and alkaline phosphatase staining of C3H10T½-BMP2 cells; assay type: cell-based, murine
Protocol: Murine C3H10T½ progenitor cells were cultured in high-glucose DMEM containing 10% fetal calf serum, as described (Ahrens Met al, DNA Cell Biol, 12: 871-880, 1993). Cells were stably transfected with expression plasmids encoding wt TAK1, dominant-negative (dn) or constitutively active (ca) TAK1 in pMT7T3-f1 using DOSPER™ according to the manufacturer's protocol (Roche, Mannheim) and a selection plasmid conferring puromycin resistance (pBSpacDp: parental C3H10T½ cells) or G418-resistance (pAG60: BMP2-expressing C3H10T½ cells). Individual clones were picked, propagated, and tested for recombinant expression of TAK1-variants by RT-PCR using a vector-specific and a gene-specific primer. Control cell lines (empty to expression vector) were established at the same time. Cells were plated at a density of 5,000 cells/cm^2. After reaching confluence (arbitrarily termed day 0) ascorbic acid (50 microgram/milliliter (μg/ml)) and b-glycerophosphate (10 millimolar (mM)) were added.
(§2) Proteoglycan-secreting chondrocytes were identified by staining with Alcian Blue at pH 2.5 (Alcian Blue 8GS, Roth, Karlsruhe).
Osteoblast formation was evaluated as a measure of TAK1 influence on osteo-/chondrogenic differentiation potential. C3H10T½-BMP2 cells co-expressing TAK1 and its molecular variants were assessed histologically for alkaline phosphatase (ALP) activity (FIG. 8C), which is indicative of osteoblast differentiation.

C3H10T½-BMP2 cells [4] = experiment: Semi-quantitative RT-PCR of osteo-/chondrogenic marker genes and Alcian Blue staining; assay type: cell-based, murine; settings: co-expression in C3H10T½-BMP2 cells
Protocol: as §2
Total cellular RNA was prepared by TriReagent LS according to the manufacturer's protocol (Molecular Research Center Inc., Ohio, Miss.). Five μg of total RNA was reverse transcribed with oligo-dT primers and cDNA aliquots were subjected to PCR. RT-PCR was normalized by the transcriptional levels of HPRT. The primer pairs and PCR conditions used to evaluate osteo-/chondrogenic differentiation, for collagen Ia1, collagen IIa1, osteocalcin, and the PTH/PTHrP-receptor have been described (Hoffmann A et al, J. Cell Sci 115: 769-781, 2002).

[5] = test system: p38 MAPK and JNK phosphorylation; experiment: p38 MAPK and JNK phosphorylation in transfected cells; assay type: cell-based; settings: data not shown
From the text: Among nine tissues examined, both TAK1 long and short forms were expressed in every tissue assessed apart from kidney (FIG. 1B). TAK1 tissue-specific expression levels varied, with minimal lung expression detected. Both TAK1 splice variants were comparably expressed in the mesenchymal progenitor line, C3H10T½ (see FIG. 8A). TAK1 mutants generated from the long transcript form included dominant-negative (TAK1dn) and constitutively active (TAK1ca) variants as compared to wild-type control (TAK1wt).

Molecule: COc1cc([C@@H]2c3cc4c(cc3[C@@H](O[C@@H]3O[C@@H]5CO[C@@H](C)O[C@H]5[C@H](O)[C@H]3O)[C@H]3COC(=O)[C@H]23)OCO4)cc(OC)c1O [etoposide]
- apoptosis (subG0-G1 peak) (C3H10T½-BMP2 cells [1]): induced a significant subG0-G1 peak

Molecule: [NH2][Pt]([NH2])([Cl])[Cl] [CDDP, cisplatin]
- cell cycle effect (C3H10T½-BMP2 cells [1]): arrested maturation in the G2-M phase
- apoptosis (subG0-G1 peak) (C3H10T½-BMP2 cells [1]): did not cause measurable apoptosis

B1: TAK1wt: wild-type murine TAK1 (long splice form) cloned from kidney, expressed from plasmid in transfected cells (protein)
chain: MSTASAASSSSSSSASEMIEAPSQVLNFEEIDYKEIEVEEVVGRGAFGVVCKAKWRAKDVAIKQIESESERKAFIVELRQLSRVNHPNIVKLYGACLNPVCLVMEYAEGGSLYNVLHGAEPLPYYTAAHAMSWCLQCSQGVAYLHSMQPKALIHRDLKPPNLLLVAGGTVLKICDFGTACDIQTHMTNNKGSAAWMAPEVFEGSNYSEKCDVFSWGIILWEVITRRKPFDEIGGPAFRIMWAVHNGTRPPLIKNLPKPIESLMTRCWSKDPSQRPSMEEIVKIMTHLMRYFPGADEPLQYPCQYSDEGQSNSATSTGSFMDIASTNTSNKSDTNMEQVPATNDTIKRLESKLLKNQAKQQSESGRLSLGASRGSSVESLPPTSEGKRMSADMSEIEARIVATAAYSKPKRGHRKTASFGNILDVPEIVISGNGQPRRRSIQDLTVTGTEPGQVSSRSSSPSVRMITTSGPTSEKPARSHPWTPDDSTDTNGSDNSIPMAYLTLDHQLQPLAPCPNSKESMAVFEQHCKMAQEYMKVQTEIALLLQRKQELVAELDQDEKDQQNTSRLVQEHKKLLDENKSLSTYYQQCKKQLEVIRSQQQKRQGTS
modifications: left off: small tags and cut ends
notes: wild-type murine TAK1 (long splice form) cloned from kidney, expressed from plasmid in transfected cells
- binding of TAK1 variant to SMAD proteins (co-immunoprecipitation) (SMAD proteins): able to interact
- SMAD1:SMAD4 interaction (SMAD1:SMAD4 interaction): enhanced
- maximum reduction of SMAD1 transcription (CAT reporter) [2]: 30%
- growth phenotype of C3H10T½-BMP2 cells expressing the TAK1 variant (C3H10T½-BMP2 cells [3]; after confluence): C3H10T½ wild-type phenotype
- osteoblast-like cell formation / ALP activity (C3H10T½-BMP2 cells [3]; compared to C3H10T½-BMP2 cells, 10 days post-confluence): interfered with osteoblast-like cell formation
- expression of osteogenic marker genes (osteocalcin, PTH/PTHrP receptor) (C3H10T½-BMP2 cells [4]): down-regulated expression of osteogenic genes
- apoptosis (subG0-G1 peak) (C3H10T½-BMP2 cells [1]): did not induce apoptosis
- biological activity as evidenced by p38 MAPK and JNK phosphorylation [5]: biologically active

B2: TAKDN: TAK1 Δ1-300 N-terminal deletion mutant (protein)
chain: PCQYSDEGQSNSATSTGSFMDIASTNTSNKSDTNMEQVPATNDTIKRLESKLLKNQAKQQSESGRLSLGASRGSSVESLPPTSEGKRMSADMSEIEARIVATAAYSKPKRGHRKTASFGNILDVPEIVISGNGQPRRRSIQDLTVTGTEPGQVSSRSSSPSVRMITTSGPTSEKPARSHPWTPDDSTDTNGSDNSIPMAYLTLDHQLQPLAPCPNSKESMAVFEQHCKMAQEYMKVQTEIALLLQRKQELVAELDQDEKDQQNTSRLVQEHKKLLDENKSLSTYYQQCKKQLEVIRSQQQKRQGTS
modifications: left off: small tags and cut ends
notes: TAK1 Δ1-300 N-terminal deletion mutant
- binding of TAK1 variant to SMAD proteins (co-immunoprecipitation) (SMAD proteins): unable to bind significantly
